Results from patent publication US20240285749A1 (published 2024).

Target: HA ectodomain trimer (UniProt Q289M7 18-528)
Assay: Octet

B1: CR9114 (Fab, V domains shown)
VH: QVQLVQSGAEVKKPGSSVKVSCKSSGGTSNNYAISWVRQAPGQGLDWMGGISPIFGSTAYAQKFQGRVTISADIFSNTAYMELNSLTSEDTAVYFCARHGNYYYYSGMDVWGQGTTVTVSS
VL: SYVLTQPPAVSGTPGQRVTISCSGSDSNIGRRSVNWYQQFPGTAPKLLIYSNDQRPSVVPDRFSGSKSGTSASLAISGLQSEDEAEYYCAAWDDSLKGAVFGGGTQLTVL
Kd: < 1 pM
